Assays:
Assay in all cases: IEDB peptide-MHC binding, purified MHC/competitive/fluorescence; filed as Kd, often an IC50 or EC50 that approximates it; ≥ and ≤ were set here for values at or beyond the usual limits of such assays
Conditions in all cases: source organism: Entamoeba histolytica HM-1:IMSS
[1] = target: HLA-B*07:02
[2] = target: HLA-A*02:19
[3] = target: HLA-A*68:02
[4] = target: HLA-B*14:02
[5] = target: HLA-B*15:17
[6] = target: HLA-A*29:02
[7] = target: HLA-A*02:12
[8] = target: HLA-A*24:03
[9] = target: HLA-A*01:01
[10] = target: HLA-A*02:03
[11] = target: HLA-A*02:01
[12] = target: HLA-B*15:01
[13] = target: HLA-A*66:01
[14] = target: HLA-B*58:01
[15] = target: HLA-B*57:01
[16] = target: HLA-A*03:01
[17] = target: HLA-A*11:01
[18] = target: HLA-B*53:01
[19] = target: HLA-A*02:11
[20] = target: HLA-A*23:01
[21] = target: HLA-B*18:01
[22] = target: HLA-B*44:02
[23] = target: HLA-A*02:16
[24] = target: HLA-B*08:01

EVIRATYPS
Kd [1]: ≥ 5 µM
Kd [2]: ≥ 20 µM
Kd [3]: 0.0002 µM
Kd [4]: ≥ 5 µM
Kd [5]: ≥ 20 µM
Kd [6]: ≥ 20 µM
Kd [7]: ≥ 20 µM
Kd [8]: ≥ 20 µM
Kd [9]: ≥ 5 µM
Kd [10]: ≥ 20 µM
Kd [11]: ≥ 20 µM
Kd [12]: ≥ 20 µM
Kd [13]: 0.0244 µM
Kd [14]: ≥ 5 µM
Kd [15]: ≥ 20 µM
Kd [16]: ≥ 20 µM
Kd [17]: ≥ 5 µM
Kd [18]: ≥ 5 µM
Kd [19]: ≥ 20 µM
Kd [20]: ≥ 20 µM
Kd [21]: ≥ 20 µM
Kd [22]: ≥ 5 µM
Kd [23]: ≥ 20 µM
Kd [24]: ≥ 5 µM

— the Immune Epitope Database (IEDB)
